From US20160251438A1 (LUDWIG INSTITUTE FOR CANCER RESEARCH, published 2016)

Tests used:
Experiment in all cases: FACS titration on transfected 293T; EC50 mutant / EC50 WT [cont.) B]
[1] = target: GARP G118L/G119L / TGF-β1 complex (human, UniProt Q14392 20-662; P01137 30-390)
Procedure: (§1) Intensities of staining at each concentration of antibody relative to the maximal intensity measured at 5 μg/ml were determined as follows:
(§2) The relative staining intensities were plotted according to the concentration of antibody used for staining, and a non-linear regression analysis was used with the Prism software to determine an EC₅₀ value for binding of the antibody to the WT and to each of the various mutant GARP/TGF-β1 complexes. If the ratio between the EC₅₀ measured on the mutant and the EC₅₀ measured on the WT was >2, the mutation was considered to induce a reduced avidity for binding by the antibody. The ratio of EC₅₀ (mutant vs WT) for MHG-8 and LHG-10 are indicated below each mutation on FIG. 19, parts A and B, respectively.

[2] = target: GARP R166M/H167E / TGF-β1 complex (human, UniProt Q14392 20-662; P01137 30-390)
Procedure: as §1, §2

[3] = target: GARP / TGF-β1 R58A complex (human, UniProt Q14392 20-662; P01137 30-390)
Procedure: as §1, §2

[4] = target: GARP L140K/E142L / TGF-β1 complex (human, UniProt Q14392 20-662; P01137 30-390)
Procedure: as §1, §2

[5] = target: GARP R170A / TGF-β1 complex (human, UniProt Q14392 20-662; P01137 30-390)
Procedure: as §1, §2

[6] = target: GARP / TGF-β1 K338E complex (human, UniProt Q14392 20-662; P01137 30-390)
Procedure: as §1, §2

[7] = target: GARP T162D / TGF-β1 complex (human, UniProt Q14392 20-662; P01137 30-390)
Procedure: as §1, §2

[8] = target: GARP R163E / TGF-β1 complex (human, UniProt Q14392 20-662; P01137 30-390)
Procedure: as §1, §2

[9] = target: GARP / TGF-β1 E146R complex (human, UniProt Q14392 20-662; P01137 30-390)
Procedure: as §1, §2

[10] = target: GARP T165A / TGF-β1 complex (human, UniProt Q14392 20-662; P01137 30-390)
Procedure: as §1, §2

[11] = target: GARP R143Y / TGF-β1 complex (human, UniProt Q14392 20-662; P01137 30-390)
Procedure: as §1, §2

[12] = target: GARP / TGF-β1 S337A complex (human, UniProt Q14392 20-662; P01137 30-390)
Procedure: as §1, §2

[13] = target: GARP / TGF-β1 Y336A complex (human, UniProt Q14392 20-662; P01137 30-390)
Procedure: as §1, §2

[14] = target: GARP / TGF-β1 Q269Y complex (human, UniProt Q14392 20-662; P01137 30-390)
Procedure: as §1, §2

[15] = target: GARP S138G / TGF-β1 complex (human, UniProt Q14392 20-662; P01137 30-390)
Procedure: as §1, §2

[16] = target: GARP Y137H / TGF-β1 complex (human, UniProt Q14392 20-662; P01137 30-390)
Procedure: as §1, §2

[17] = target: GARP G139N / TGF-β1 complex (human, UniProt Q14392 20-662; P01137 30-390)
Procedure: as §1, §2

[18] = target: GARP E189A / TGF-β1 complex (human, UniProt Q14392 20-662; P01137 30-390)
Procedure: as §1, §2

[19] = target: GARP / TGF-β1 Y284A complex (human, UniProt Q14392 20-662; P01137 30-390)
Procedure: as §1, §2

[20] = target: GARP M111T/A112G/T113M / TGF-β1 complex (human, UniProt Q14392 20-662; P01137 30-390)
Procedure: as §1, §2

Chain of GARP E189A / TGF-β1 complex (Q14392 20-662 E189A limits assumed, chain 1 of 2): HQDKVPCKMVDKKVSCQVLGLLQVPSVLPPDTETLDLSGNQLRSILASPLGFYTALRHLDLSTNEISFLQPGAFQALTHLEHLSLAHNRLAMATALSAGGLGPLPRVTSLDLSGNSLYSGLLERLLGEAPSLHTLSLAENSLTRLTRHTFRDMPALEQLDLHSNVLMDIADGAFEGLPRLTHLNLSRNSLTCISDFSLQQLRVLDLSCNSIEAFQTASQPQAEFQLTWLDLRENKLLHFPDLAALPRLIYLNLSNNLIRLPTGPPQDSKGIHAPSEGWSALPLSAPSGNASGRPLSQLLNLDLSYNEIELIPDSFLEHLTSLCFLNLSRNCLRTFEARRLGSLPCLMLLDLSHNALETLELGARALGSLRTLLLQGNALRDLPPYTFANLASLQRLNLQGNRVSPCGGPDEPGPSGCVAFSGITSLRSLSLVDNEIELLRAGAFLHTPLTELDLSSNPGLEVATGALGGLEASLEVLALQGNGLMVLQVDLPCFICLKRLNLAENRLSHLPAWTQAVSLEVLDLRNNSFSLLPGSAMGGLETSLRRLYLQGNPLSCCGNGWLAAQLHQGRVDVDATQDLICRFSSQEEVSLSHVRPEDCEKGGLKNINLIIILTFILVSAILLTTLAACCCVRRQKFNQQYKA
Chain of GARP E189A / TGF-β1 complex (P01137 30-390 limits assumed, chain 2 of 2): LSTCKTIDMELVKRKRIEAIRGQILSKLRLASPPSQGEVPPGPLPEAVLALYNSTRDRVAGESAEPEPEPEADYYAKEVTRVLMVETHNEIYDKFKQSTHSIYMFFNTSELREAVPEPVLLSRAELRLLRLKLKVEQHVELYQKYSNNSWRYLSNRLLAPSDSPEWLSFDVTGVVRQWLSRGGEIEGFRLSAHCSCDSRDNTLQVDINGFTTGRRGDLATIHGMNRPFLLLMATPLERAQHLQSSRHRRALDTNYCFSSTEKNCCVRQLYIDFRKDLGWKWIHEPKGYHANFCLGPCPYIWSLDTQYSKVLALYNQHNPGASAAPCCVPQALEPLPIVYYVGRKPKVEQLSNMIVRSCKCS
Chain of GARP R163E / TGF-β1 complex (Q14392 20-662 R163E limits assumed, chain 1 of 2): as the sequence (Q14392 20-662 E189A limits assumed, chain 1 of 2) above, with R144E, A170E counted along it
Chain of GARP R163E / TGF-β1 complex (P01137 30-390 limits assumed, chain 2 of 2): as the sequence (P01137 30-390 limits assumed, chain 2 of 2) above
Chain of GARP R170A / TGF-β1 complex (Q14392 20-662 R170A limits assumed, chain 1 of 2): as the sequence (Q14392 20-662 E189A limits assumed, chain 1 of 2) above, with R151A, A170E counted along it
Chain of GARP R170A / TGF-β1 complex (P01137 30-390 limits assumed, chain 2 of 2): as the sequence (P01137 30-390 limits assumed, chain 2 of 2) above
Chain of GARP M111T/A112G/T113M / TGF-β1 complex (Q14392 20-662 M111T/A112G/T113M limits assumed, chain 1 of 2): as the sequence (Q14392 20-662 E189A limits assumed, chain 1 of 2) above, with M92T, A93G, T94M, A170E counted along it
Chain of GARP M111T/A112G/T113M / TGF-β1 complex (P01137 30-390 limits assumed, chain 2 of 2): as the sequence (P01137 30-390 limits assumed, chain 2 of 2) above

Ratio of EC50 (mutant / wt) [1]: 0.8 | Ratio of EC50 (mutant / wt) [2]: 1.5 | Ratio of EC50 (mutant / wt) [3]: 1.5 | Ratio of EC50 (mutant / wt) [4]: 0.7 | Ratio of EC50 (mutant / wt) [5]: 1.5 | Ratio of EC50 (mutant / wt) [6]: 7.2 | Ratio of EC50 (mutant / wt) [7]: 2.5 | Ratio of EC50 (mutant / wt) [8]: 4.1 | Ratio of EC50 (mutant / wt) [9]: 0.8 | Ratio of EC50 (mutant / wt) [10]: 1 | Ratio of EC50 (mutant / wt) [11]: 1.6 | Ratio of EC50 (mutant / wt) [12]: 1.4 | Ratio of EC50 (mutant / wt) [13]: 1.9 | Ratio of EC50 (mutant / wt) [14]: 0.8 | Ratio of EC50 (mutant / wt) [15]: 0.6 | Ratio of EC50 (mutant / wt) [16]: 0.6 | Ratio of EC50 (mutant / wt) [17]: 1.2 | Ratio of EC50 (mutant / wt) [18]: 0.8 | Ratio of EC50 (mutant / wt) [19]: 1.9 | Ratio of EC50 (mutant / wt) [20]: 1.2
B1: LHG-10 (antibody, human IgG1, V domains shown)
VH: EVQLVQPGAELRNSGASVKVSCKASGYRFTSYYIDWVRQAPGQGLEWMGRIDPEDGGTKYAQKFQGRVTFTADTSTSTAYVELSSLRSEDTAVYYCARNEWETVVVGDLMYEYEYWGQGTQVTVSS
VL: DIQMTQSPTSLSASLGDRVTITCQASQSISSYLAWYQQKPGQAPKLLIYGASRLQTGVPSRFSGSGSGTSFTLTISGLEAEDAGTYYCQQYDSLPVTFGQGTKVELK
notes: llama-derived V regions in a full human IgG1
